Usually Kd stands for a measure of binding affinity in units of concentration. As a reminder, the koff is the rate constant with which the complex falls apart. High values mean a short-lived complex, low ones a long-lived complex. What is called kon is the second-order rate constant of association. High values mean faster complex formation, low ones slower complex formation.

First the molecules themselves.
B1: Y12XX-hz14 (antibody, human IgG1, kappa, V domains shown)
VH: QVQLVQSGAEVKKPGSSVKVSCKASGYAFTSYWMHWVRQAPGQGLEWMGQINPTTGRSQYNEKFKTRVTITADKSTSTAYMELSSLRSEDTAVYYCARWGLQPFAYWGQGTLVTVSS
VL: DIQMTQSPSSLSASVGDRVTITCKASQDVSTAVAWYQQKPGKAPKLLIYSASYRYTGVPSRFSGSGSGTDFTFTISSLQPEDIATYYCQQHYSTPWTFGGGTKVEIKR
notes: Humanized, IgG1-P238K; supernatant sample
B2: Y12XX-hz4 (antibody, human IgG1, kappa, V domains shown)
VH: QVQLVQSGAEVKKPGSSVKVSCKASGYAFTSYWMHWVRQAPGQGLEWMGYINPTTGYSAYNQKFKDKATLTADKSTSTAYMELSSLRSEDTAVYYCARWDPRPFAYWGQGTLVTVSS
VL: DIQMTQSPSSLSASVGDRVTITCKASQDVSTAVAWYQQKPGKAPKLLIYSASYRYTGVPSRFSGSGSGTDFTFTISSLQPEDIATYYCQQHYSTPWTFGGGTKVEIKR
notes: as for B1
B3: Y12XX-hz8 (antibody, human IgG1, kappa, V domains shown)
VH: QVQLVQSGAEVKKPGSSVKVSCKASGYAFTSYWMHWVRQAPGQGLEWMGYINPTTGYSAYNQKFKDKATLTADKSTSTAYMELSSLRSEDTAVYYCARWDARPFAYWGQGTLVTVSS
VL: DIQMTQSPSSLSASVGDRVTITCKASQDVSTAVAWYQQKPGKAPKLLIYSASYRYTGVPSRFSGSGSGTDFTFTISSLQPEDIATYYCQQHYSTPWTFGGGTKVEIKR
notes: as for B1
B4: Y12XX-hz13 (antibody, human IgG1, kappa, V domains shown)
VH: QVQLVQSGAEVKKPGSSVKVSCKASGYAFTSYWMHWVRQAPGQGLEWMGQINPSNARSQYNEKFKTRVTITADKSTSTAYMELSSLRSEDTAVYYCARWGLQPFAYWGQGTLVTVSS
VL: DIQMTQSPSSLSASVGDRVTITCKASQDVSTAVAWYQQKPGKAPKLLIYSASYRYTGVPSRFSGSGSGTDFTFTISSLQPEDIATYYCQQHYSTPWTFGGGTKVEIKR
notes: as for B1
B5: Y12XX-hz5 (antibody, human IgG1, kappa, V domains shown)
VH: QVQLVQSGAEVKKPGSSVKVSCKASGYAFTSYWMHWVRQRPGQGLEWMGYINPTTGYSAYNQKFKDKATLTADKSTSTAYMELSSLRSEDTAVYYCARWDPRPFAYWGQGTLVTVSS
VL: DIQMTQSPSSLSASVGDRVTITCKASQDVSTAVAWYQQKPGKAPKLLIYSASYRYTGVPSRFSGSGSGTDFTFTISSLQPEDIATYYCQQHYSTPWTFGGGTKVEIKR
notes: as for B1
B6: Y12XX-hz3 (antibody, human IgG1, kappa, V domains shown)
VH: QVQLVQSGAEVKKPGSSVKVSCKASGYAFTSYWMHWVRQRPGQGLEWIGFINPTTGYSEYNQKFKDRVTITADKSTSTAYMELNSLRSEDTAVYYCARWGLPPFAYWGQGTLVTVSS
VL: DIQMTQSPSSLSASVGDRVTITCKASQDVSTAVAWYQQKPGKAPKLLIYSASYRYTGVPSRFSGSGSGTDFTFTISSLQPEDIATYYCQQHYSTPWTFGGGTKVEIKR
notes: as for B1
B7: Y12XX-hz12 (antibody, human IgG1, kappa, V domains shown)
VH: QVQLVQSGAEVKKPGSSVKVSCKASGYAFTSYWMHWVRQAPGQGLEWMGQINPSQGRSQYNEKFKTRVTITADKSTSTAYMELSSLRSEDTAVYYCARWGLQPFAYWGQGTLVTVSS
VL: DIQMTQSPSSLSASVGDRVTITCKASQDVSTAVAWYQQKPGKAPKLLIYSASYRYTGVPSRFSGSGSGTDFTFTISSLQPEDIATYYCQQHYSTPWTFGGGTKVEIKR
notes: as for B1
B8: Y12XX-hz1 (antibody, human IgG1, kappa, V domains shown)
VH: QVQLVQSGAEVKKPGSSVKVSCKASGYAFTSYWMHWVRQAPGQGLEWMGFINPTTGYSEYNQKFKDRVTITADKSTSTAYMELSSLRSEDTAVYYCARWGLPPFAYWGQGTLVTVSS
VL: DIQMTQSPSSLSASVGDRVTITCKASQDVSTAVAWYQQKPGKAPKLLIYSASYRYTGVPSRFSGSGSGTDFTFTISSLQPEDIATYYCQQHYSTPWTFGGGTKVEIKR
notes: as for B1
B9: Y12XX-hz10 (antibody, human IgG1, kappa, V domains shown)
VH: QVQLVQSGAEVKKPGSSVKVSCKASGYAFTSYWMHWVRQRPGQGLEWMGQINPSNGRSQYNEKFKTRVTITADKSTSTAYMELSSLRSEDTAVYYCARWGLQPFAYWGQGTLVTVSS
VL: DIQMTQSPSSLSASVGDRVTITCKASQDVSTAVAWYQQKPGKAPKLLIYSASYRYTGVPSRFSGSGSGTDFTFTISSLQPEDIATYYCQQHYSTPWTFGGGTKVEIKR
notes: as for B1
B10: Y12XX-hz2 (antibody, human IgG1, kappa, V domains shown)
VH: QVQLVQSGAEVKKPGSSVKVSCKASGYAFTSYWMHWVRQRPGQGLEWMGFINPTTGYSEYNQKFKDRVTITADKSTSTAYMELSSLRSEDTAVYYCARWGLPPFAYWGQGTLVTVSS
VL: DIQMTQSPSSLSASVGDRVTITCKASQDVSTAVAWYQQKPGKAPKLLIYSASYRYTGVPSRFSGSGSGTDFTFTISSLQPEDIATYYCQQHYSTPWTFGGGTKVEIKR
notes: as for B1
B11: Y12XX-hz9 (antibody, human IgG1, kappa, V domains shown)
VH: QVQLVQSGAEVKKPGSSVKVSCKASGYAFTSYWMHWVRQAPGQGLEWMGQINPSNGRSQYNEKFKTRVTITADKSTSTAYMELSSLRSEDTAVYYCARWGLQPFAYWGQGTLVTVSS
VL: DIQMTQSPSSLSASVGDRVTITCKASQDVSTAVAWYQQKPGKAPKLLIYSASYRYTGVPSRFSGSGSGTDFTFTISSLQPEDIATYYCQQHYSTPWTFGGGTKVEIKR
notes: as for B1
B12: Y12XX-hz15 (antibody, human IgG1, kappa, V domains shown)
VH: QVQLVQSGAEVKKPGSSVKVSCKASGYAFTSYWMHWVRQAPGQGLEWMGFINPTTGYSEYNQKFKDRVTITADKSTSTAYMELSSLRSEDTAVYYCARWGLPPFAYWGQGTLVTVSS
VL: DIQMTQSPSFLSASVGDRVTITCKASQDVSTAVAWYQQKPGKAPKLLIYSASYRYTGVPSRFSGSGSGTDFTLTISSLQPEDFATYYCQQHYSTPWTFGGGTKVEIKR
notes: as for B1
B13: Y12XX-hz11 (antibody, human IgG1, kappa, V domains shown)
VH: QVQLVQSGAEVKKPGSSVKVSCKASGYAFTSYWMHWVRQRPGQGLEWIGQINPSNGRSQYNEKFKTRVTITADKSTSTAYMELSSLRSEDTAVYYCARWGLQPFAYWGQGTLVTVSS
VL: DIQMTQSPSSLSASVGDRVTITCKASQDVSTAVAWYQQKPGKAPKLLIYSASYRYTGVPSRFSGSGSGTDFTFTISSLQPEDIATYYCQQHYSTPWTFGGGTKVEIKR
notes: as for B1

T1 sequence (P25942 21-193 limits assumed): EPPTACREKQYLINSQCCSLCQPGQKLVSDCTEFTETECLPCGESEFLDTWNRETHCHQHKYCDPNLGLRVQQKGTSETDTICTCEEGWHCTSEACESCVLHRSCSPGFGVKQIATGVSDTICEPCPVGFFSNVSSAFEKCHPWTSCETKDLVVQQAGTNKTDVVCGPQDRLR

This assay has as its target T1, human-CD40-monomer protein (human, UniProt P25942 21-193, limits assumed).
T1 construct: Soluble monomer generated in house, used as SPR analyte; also called hCD40; hCD40-monomer
Kind of assay: SPR, Ab captured on protein A, hCD40 monomer 500 and 50 nM, 1:1 fit; supernatant. The procedure: Titer analysis was performed using Biolayer Interferometry (BLI) on an Octet RED instrument (Fortebio) by capturing antibodies from supernatant using protein A sensor tips and measuring capture response with respect to a standard curve obtained using a control antibody sample. SPR data were obtained by capturing antibodies on a protein A surface and testing the binding of 500 nM and 50 nM injections of human-CD40 analyte, using a BIAcore™ T200 instrument (GE Healthcare). The kinetic data for the two concentrations of hCD40-monomer were fit to a 1:1 Langmuir model, to yield estimates of the kinetic and affinity values for these interactions, and for comparison of the different molecules.
For orientation: Surface plasmon resonance follows binding to a sensor surface in real time, without labels.
As to B1, binding was put at a Kd of 5 nM, the koff amounted to 0.00083 s⁻¹ and the kon was 170000 M⁻¹ s⁻¹.

B2: the affinity, expressed as Kd, was 4.7 nM; the koff was 0.0022 s⁻¹; the kon was 460000 M⁻¹ s⁻¹.

Consider B3, for which the Kd was determined as 210 nM, the koff is 0.15 s⁻¹ and the kon was 720000 M⁻¹ s⁻¹.

The molecule B4 displayed a Kd of 3.9 nM, an off-rate constant (koff) of 0.00083 s⁻¹ and a kon of 210000 M⁻¹ s⁻¹.

As for B5, the Kd is 7.2 nM, the koff is 0.0025 s⁻¹ and the kon came out at 350000 M⁻¹ s⁻¹.

The molecule B6 showed a Kd of 4.5 nM, a koff of 6.7e-05 s⁻¹ and a kon of 15000 M⁻¹ s⁻¹.

With B7, binding was put at a Kd of 8.3 nM, the koff was determined as 0.0014 s⁻¹ and the on-rate (kon) stood at 170000 M⁻¹ s⁻¹.

The molecule B8 showed a Kd of 1.1 nM, a koff of 1.6e-05 s⁻¹ and a kon of 15000 M⁻¹ s⁻¹.

B9 gave a dissociation constant Kd of 3.6 nM, an off-rate (koff) of 0.00073 s⁻¹ and a kon of 200000 M⁻¹ s⁻¹.

As to B10, binding was characterised by a dissociation constant (Kd) of 4.1 nM, the koff was 7.1e-05 s⁻¹ and the kon was determined as 17000 M⁻¹ s⁻¹.

As for B11, the Kd is 4.6 nM, the koff was 0.00089 s⁻¹ and the kon came to 200000 M⁻¹ s⁻¹.

In the case of B12, the Kd came to 8 nM, the koff came out at 0.00013 s⁻¹ and the kon was found to be 16000 M⁻¹ s⁻¹.

B13 came in with a Kd of 5 nM, a koff of 0.00088 s⁻¹ and a kon of 180000 M⁻¹ s⁻¹.

Values taken from US20240124597A1 (Bristol-Myers Squibb, published 2024).
